According to US20200079854A1 (Johns Hopkins, published 2020):

How the values were obtained:
[1] = biological target: T1, KRAS wt(7-16) peptide … with HLA-A3 and b2M on cells (human); assay: flow cytometry, phage-displayed scFv on peptide-pulsed T2A3 cells (FIG. 6)
T1 construct: peptide-pulsed T2A3 cells in flow cytometry
Method: (§1) Cells were stained with 10 μL of precipitated phage per 100 μL of cells, washed and stained with rabbit anti-M13 antibody, then washed and stained with anti-Rabbit-PE antibody. Cells were stained with a live/dead Near-IR dye, washed, and analyzed by an LSRII flow cytometer.
(§2) The pulsed cells were pelleted, washed once in cold stain buffer (PBS containing 0.5% BSA, 2 mM EDTA, and 0.1% sodium azide), and resuspended in 100 μL of stain buffer. Phage staining was performed on ice with 10 uL (approximately 1×10⁹) phage for 1 hour in 100 uL total volume, followed by one 4 mL wash in cold stain buffer. Cells were then stained with 1 uL of rabbit anti-M13 antibody (Pierce, Rockford, Ill.) in 100 uL total volume on ice for 1 hour and washed once with 4 mL of cold stain buffer. Cells were stained with anti-rabbit-PE (Biolegend) on ice for 1 hour in 100 uL total volume, followed by incubation with LIVE/DEAD Fixable Near-IR Dead Cell Stain (Thermo Fisher) for 10 min at room temperature per manufacturer's instructions. Cells were washed once in 4 mL of stain buffer followed by resuspension in 300 uL of stain buffer before analysis. Stained cells were analyzed using an LSRII flow cytometer (Becton Dickinson, Mansfield, Mass.).

[2] = biological target: T1, KRAS wt(7-16) peptide … with HLA-A3 and …; assay: flow cytometry, phage-displayed scFv on peptide-pulsed T2A3 cells (FIG. 8)
Method: as §1, §2

[3] = biological target: KRAS wt(6-14) peptide … with HLA-A2 and b2M on peptide-pulsed T2 cells (human); assay: flow cytometry, phage-displayed scFv on peptide-pulsed T2 cells (FIG. 5)
Method: as §1, §2

Binder | binding result [1] | binding result [2] | binding result [3]
KRAS_G12CDV_A3_c19 (scFv) scFv: DIQMTQSPSSLSASVGDRVTITCRASQDVNTAVAWYQQKPGKAPKLLIYSASFLYSGVPSRFSGSRSGTDFTLTISSLQPEDFATYYCQQTYYSPWTFGQGTKVEIKRTGGGSGGGGSGGGASEVQLVESGGGLVQPGGSLRLSCAASGFNIRSYAMHWVRQAPGKGLEWVAQVGPGKGYTYYADSVKGRFTISADTSKNTAYLQMNSLRAEDTAVYYCSRNFQSTSHAFDYWGQGTLVTVSS | no binding |  | 
KRAS_G12CV_A3_c15 (scFv) scFv: DIQMTQSPSSLSASVGDRVTITCRASQDVNTAVAWYQQKPGKAPKLLIYSASFLYSGVPSRFSGSRSGTDFTLTISSLQPEDFATYYCQQSYGSGSPWTFGQGTKVEIKRTGGGSGGGGSGGGASEVQLVESGGGLVQPGGSLRLSCAASGFNIVGGGIHWVRQAPGKGLEWVAKIYPQGDYTYYADSVKGRFTISADTSKNTAYLQMNSLRAEDTAVYYCSRDSSYLAFDYWGQGTLVTVSS | no binding |  | 
KRAS_G12D_A3_D26 (scFv) scFv: DIQMTQSPSSLSASVGDRVTITCRASQDVNTAVAWYQQKPGKAPKLLIYSASFLYSGVPSRFSGSRSGTDFTLTISSLQPEDFATYYCQQYAYSPLTFGQGTKVEIKRTGGGSGGGGSGGGASEVQLVESGGGLVQPGGSLRLSCAASGFNVSSYGMHWVRQAPGKGLEWVAFIAPRRDYTSYADSVKGRFTISADTSKNTAYLQMNSLRAEDTAVYYCSRKSSYYFDYWGQGTLVTVSS |  | no binding | 
KRAS_G12V_A2_A1 (scFv) scFv: DIQMTQSPSSLSASVGDRVTITCRASQDVNTAVAWYQQKPGKAPKLLIYSASFLYSGVPSRFSGSRSGTDFTLTISSLQPEDFATYYCQQWYSSPVTFGQGTKVEIKRTGGGSGGGGSGGGASEVQLVESGGGLVQPGGSLRLSCAASGFNINWANMHWVRQAPGKGLEWVAQISPPYDYTNYADSVKGRFTISADTSKNTAYLQMNSLRAEDTAVYYCSRSYSYYFDYWGQGTLVTVSS |  |  | no binding
KRAS_G12V_A2_A5 (scFv) scFv: DIQMTQSPSSLSASVGDRVTITCRASQDVNTAVAWYQQKPGKAPKLLIYSASFLYSGVPSRFSGSRSGTDFTLTISSLQPEDFATYYCQQWYSSPVTFGQGTKVEIKRTGGGSGGGGSGGGASEVQLVESGGGLVQPGGSLRLSCAASGFNIYWSHMHWVRQAPGKGLEWVAIISSFEGYTYYADSVKGRFTISADTSKNTAYLQMNSLRAEDTAVYYCSRSYSYYMDYWGQGTLVTVSS |  |  | no binding
KRAS_G12V_A2_C1 (scFv) scFv: DIQMTQSPSSLSASVGDRVTITCRASQDVNTAVAWYQQKPGKAPKLLIYSASFLYSGVPSRFSGSRSGTDFTLTISSLQPEDFATYYCQQYYSRPVTFGQGTKVEIKRTGGGSGGGGSGGGASEVQLVESGGGLVQPGGSLRLSCAASGFNIYLHDMHWVRQAPGKGLEWVAQIIPAIDYTNYADSVKGRFTISADTSKNTAYLQMNSLRAEDTAVYYCSRRDGYYFDYWGQGTLVTVSS |  |  | no binding
KRAS_G12CDV_A3_c118 (scFv) scFv: DIQMTQSPSSLSASVGDRVTITCRASQDVNTAVAWYQQKPGKAPKLLIYSASFLYSGVPSRFSGSRSGTDFTLTISSLQPEDFATYYCQQYYYPPITFGQGTKVEIKRTGGGSGGGGSGGGASEVQLVESGGGLVQPGGSLRLSCAASGFNVSHTGMHWVRQAPGKGLEWVAVVGPGKGYTYYADSVKGRFTISADTSKNTAYLQMNSLRAEDTAVYYCSRKTYYAFDYWGQGTLVTVSS | no binding |  | 
KRAS_G12D_A3_D12 (scFv) scFv: DIQMTQSPSSLSASVGDRVTITCRASQDVNTAVAWYQQKPGKAPKLLIYSASFLYSGVPSRFSGSRSGTDFTLTISSLQPEDFATYYCQQSSSSPITFGQGTKVEIKRTGGGSGGGGSGGGASEVQLVESGGGLVQPGGSLRLSCAASGFNISGYGMHWVRQAPGKGLEWVAYLYGGSDYTNYADSVKGRFTISADTSKNTAYLQMNSLRAEDTAVYYCSRTVRYAFDYWGQGTLVTVSS |  | no binding | 
KRAS_G12D_A3_D15 (scFv) scFv: DIQMTQSPSSLSASVGDRVTITCRASQDVNTAVAWYQQKPGKAPKLLIYSASFLYSGVPSRFSGSRSGTDFTLTISSLQPEDFATYYCQQSSASPLTFGQGTKVEIKRTGGGSGGGGSGGGASEVQLVESGGGLVQPGGSLRLSCAASGFNVSSVGMHWVRQAPGKGLEWVAYIYGTSDYTYYADSVKGRFTISADTSKNTAYLQMNSLRAEDTAVYYCSRSSRYSMDYWGQGTLVTVSS |  | no binding | 
